Where no end group is shown, it is not given here.
Target: T1, MBP-PDZ protein (Erbin PDZ) with a single cysteine, conjugated to DNA (UniProt Q96RT1 1321-1410, ATTO 532 (labelled with ATTO 532-NHS); amine-modified DNA oligonucleotide coupled through sulfo-SMCC to the single cysteine between MBP and PDZ)
T1 chain: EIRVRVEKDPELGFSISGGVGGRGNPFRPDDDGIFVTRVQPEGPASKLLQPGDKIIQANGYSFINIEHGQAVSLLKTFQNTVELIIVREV
Experiment: FP; no DNA attached to MBP-PDZ

Kd: 200 nM
Binder: CGAGRGSIDTWV (also: ATTO 655 label (site not given here)) [ATTO 655-labeled target peptide]
